The target of test [1] is turnip mosaic virus (TuMV) isolate YC5 VPg R118H (turnip mosaic virus isolate YC5). As to the kind of experiment: two-hybrid.
Test [2] addresses turnip mosaic virus (TuMV) isolate YC5 VPg D113G (turnip mosaic virus isolate YC5). As to the kind of experiment: two-hybrid.

In turn, “MYOSIN 3 (MYOS3) protein (natural protein)” came in with a percent stronger binding than VPg^wt in test [1] of 27.5%. Consider “MITOCHONDRIAL GLYCOPROTEIN FAMILY PROTEIN (AT1G15870) (natural protein)”, for which, in test [1], the percent stronger binding than VPg^wt amounted to 36.2%. Take “ARM-REPEAT SU… PROTEIN (AT5G62580) (natural protein)”: in test [2], the percent reduction in binding strength compared to VPg^wt came to 28.8%. For the substance “ROS1-ASSOCIATED HOMEODOMAIN PROTEIN 1 (RHD1) (natural protein)”, the percent decrease in binding affinity compared to VPg^wt in test [2] worked out at 22.6%. The percent increase in binding affinity compared to VPg^wt in test [1] is 17.4%. Take “eukaryotic translation initiation factor (iso)4E (natural protein)”: the percent weaker interaction than with VPg^wt in test [2] and in test [1] was 90.5% in each case. “PROLINE RICH MITOTIC CHECKPOINT CONTROL FACTOR (PRCC) (natural protein)”: the percent stronger binding than VPg^wt in test [1] is 22.5%.

With “PYRUVATE ORTHOPHOSPHATE DIKINASE (PPDK) REGULATORY PROTEIN 1 (RP1) (natural protein)”, the percent stronger binding than VPg^wt in test [1] is 47.1%.

As for “FRUCTOKINASE-LIKE 1 (FLN1) protein (natural protein)”, the percent weaker interaction than with VPg^wt in test [2] and in test [1] was 36.5% in each case.

(Values after article PMC11291303.)
